The data set has as its system Escherichia coli TOP10. Nature of the data set: shrunken log2 fold change of peptide-encoding DNA abundance (4.5 h post-induction vs induction); higher = less antimicrobial activity (less host growth inhibition). To be noted: time post-induction: 4.5 h; library: site-saturation at positions 5, 18, 19, 20.
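Note: peptides expressed intracellularly from a pBAD plasmid library in pooled LB shake-flask culture, induced with 0.3% L-arabinose, DNA abundance read by NGS, three biological replicates, DESeq2 with apeglm shrinkage.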

As to RRIRPRPPRLPRPRPRPLYLPRP, the “shrunken log2 fold change” value was -0.625. As to RRIRFRPPRLPRPRPRPKCTPRP, the “shrunken log2 fold change” value is -0.243.

Take RRIRNRPPRLPRPRPRPIGNPRP: the “shrunken log2 fold change” value turned out to be 0.0106. Turning to RRIRIRPPRLPRPRPRPCTPPRP, the “shrunken log2 fold change” value was -0.719. On to RRIRNRPPRLPRPRPRPGEGPRP, for which the “shrunken log2 fold change” value amounted to 0.196. Turning to RRIRTRPPRLPRPRPRPGLPPRP, the “shrunken log2 fold change” value amounted to 0.189. Consider RRIRWRPPRLPRPRPRPHYNPRP, for which the “shrunken log2 fold change” value is -0.772. Regarding RRIRARPPRLPRPRPRPNYAPRP, the “shrunken log2 fold change” value was -0.0399. In the case of RRIRARPPRLPRPRPRPHMTPRP, the “shrunken log2 fold change” value is -0.0862. Turning to RRIRKRPPRLPRPRPRPICEPRP, the “shrunken log2 fold change” value came to 0.115. For RRIRYRPPRLPRPRPRPMLVPRP, the “shrunken log2 fold change” value was -0.176.

RRIRRRPPRLPRPRPRPKGNPRP: the “shrunken log2 fold change” value stood at 0.0579. For RRIRPRPPRLPRPRPRPWRNPRP, the “shrunken log2 fold change” value is 0.0809. RRIRERPPRLPRPRPRPHFNPRP: the “shrunken log2 fold change” value was -0.744. For the sequence RRIRPRPPRLPRPRPRPFVMPRP, the “shrunken log2 fold change” value is -0.201.

As for RRIRKRPPRLPRPRPRPESEPRP, the “shrunken log2 fold change” value was 2.93. The same measure for RRIRPRPPRLPRPRPRPFWYPRP: -0.525; for RRIRARPPRLPRPRPRPNNVPRP: -0.0632. As to RRIRQRPPRLPRPRPRPFVIPRP, the “shrunken log2 fold change” value is -0.131. Consider RRIRSRPPRLPRPRPRPRKQPRP, for which the “shrunken log2 fold change” value worked out at 0.248. Regarding RRIRTRPPRLPRPRPRPIIEPRP, the “shrunken log2 fold change” value is -0.565. Turning to RRIRWRPPRLPRPRPRPCIMPRP, the “shrunken log2 fold change” value was -0.339.

For the sequence RRIRCRPPRLPRPRPRPYGLPRP, the “shrunken log2 fold change” value was -0.0136. The same measure for RRIRMRPPRLPRPRPRPTNHPRP: 0.0232; for RRIRVRPPRLPRPRPRPPGRPRP: 0.593; for RRIRRRPPRLPRPRPRPKNWPRP: 0.381. Turning to RRIRWRPPRLPRPRPRPIGMPRP, the “shrunken log2 fold change” value was -0.131. For RRIRARPPRLPRPRPRPDVKPRP, the “shrunken log2 fold change” value came to 0.395.

In the case of RRIRVRPPRLPRPRPRPNTMPRP, the “shrunken log2 fold change” value is -0.293.

Regarding RRIRHRPPRLPRPRPRPVQMPRP, the “shrunken log2 fold change” value was determined as 0.0393. As for RRIRFRPPRLPRPRPRPDTIPRP, the “shrunken log2 fold change” value is -0.498. The same measure for RRIRGRPPRLPRPRPRPPGNPRP: 0.432; for RRIRGRPPRLPRPRPRPQETPRP: -0.0108.

In the case of RRIRYRPPRLPRPRPRPIHWPRP, the “shrunken log2 fold change” value was -0.182. RRIRHRPPRLPRPRPRPTRFPRP: the “shrunken log2 fold change” value turned out to be 1.65. In the case of RRIRMRPPRLPRPRPRPFGKPRP, the “shrunken log2 fold change” value was determined as 0.129. With RRIRARPPRLPRPRPRPQFMPRP, the “shrunken log2 fold change” value was determined as 0.546. With RRIRNRPPRLPRPRPRPWVQPRP, the “shrunken log2 fold change” value was 0.00853. With RRIRHRPPRLPRPRPRPWQSPRP, the “shrunken log2 fold change” value is -0.0359. Consider RRIRVRPPRLPRPRPRPNVCPRP, for which the “shrunken log2 fold change” value is -0.111.

Turning to RRIRYRPPRLPRPRPRPVPYPRP, the “shrunken log2 fold change” value was -0.0727.

As for RRIRNRPPRLPRPRPRPPANPRP, the “shrunken log2 fold change” value came out at 0.262. As for RRIRERPPRLPRPRPRPTLHPRP, the “shrunken log2 fold change” value was -0.0201. Regarding RRIRGRPPRLPRPRPRPHGFPRP, the “shrunken log2 fold change” value amounted to 0.422. As to RRIRLRPPRLPRPRPRPCKPPRP, the “shrunken log2 fold change” value was -0.1. As to RRIRSRPPRLPRPRPRPVFDPRP, the “shrunken log2 fold change” value was 0.106. The same measure for RRIRYRPPRLPRPRPRPYSWPRP: -0.156.

With RRIRGRPPRLPRPRPRPRKAPRP, the “shrunken log2 fold change” value was determined as 0.693. RRIRWRPPRLPRPRPRPRCVPRP: the “shrunken log2 fold change” value stood at 0.117. To RRIRMRPPRLPRPRPRPKGNPRP belongs 0.0272. Turning to RRIRKRPPRLPRPRPRPYMKPRP, the “shrunken log2 fold change” value is -0.134.

Consider RRIRIRPPRLPRPRPRPSEMPRP, for which the “shrunken log2 fold change” value was -0.553. For the sequence RRIRFRPPRLPRPRPRPSTGPRP, the “shrunken log2 fold change” value is -0.787.

As for RRIRHRPPRLPRPRPRPGIWPRP, the “shrunken log2 fold change” value came to 0.139.

Consider RRIRIRPPRLPRPRPRPYLFPRP, for which the “shrunken log2 fold change” value is -0.376. Regarding RRIRSRPPRLPRPRPRPRYKPRP, the “shrunken log2 fold change” value is -0.154.

Regarding RRIRRRPPRLPRPRPRPFNWPRP, the “shrunken log2 fold change” value turned out to be 0.0111.

Regarding RRIRTRPPRLPRPRPRPVGDPRP, the “shrunken log2 fold change” value came out at 0.21. Take RRIRLRPPRLPRPRPRPCHCPRP: the “shrunken log2 fold change” value is -0.0469. Turning to RRIRKRPPRLPRPRPRPLCFPRP, the “shrunken log2 fold change” value turned out to be 0.188. Turning to RRIRWRPPRLPRPRPRPWCPPRP, the “shrunken log2 fold change” value was found to be 0.0505. The same measure for RRIRNRPPRLPRPRPRPCDYPRP: -0.00992; for RRIRCRPPRLPRPRPRPRNKPRP: -0.102. To RRIRHRPPRLPRPRPRPSVDPRP belongs 0.0776; to RRIRPRPPRLPRPRPRPVWKPRP, 0.218; to RRIRGRPPRLPRPRPRPCTHPRP, -0.0414.

On to RRIRCRPPRLPRPRPRPGKNPRP, for which the “shrunken log2 fold change” value was -0.133. To RRIRTRPPRLPRPRPRPNSHPRP belongs -0.015. RRIRARPPRLPRPRPRPNYEPRP: the “shrunken log2 fold change” value is -0.22.

On to RRIRTRPPRLPRPRPRPIVAPRP, for which the “shrunken log2 fold change” value was determined as 2.95. In the case of RRIRNRPPRLPRPRPRPFCMPRP, the “shrunken log2 fold change” value is -0.45. As for RRIRRRPPRLPRPRPRPMIDPRP, the “shrunken log2 fold change” value is -0.1.

In the case of RRIRGRPPRLPRPRPRPQASPRP, the “shrunken log2 fold change” value turned out to be 1.03. The same measure for RRIRYRPPRLPRPRPRPKSQPRP: -0.176; for RRIRNRPPRLPRPRPRPQVIPRP: -0.000921; for RRIRSRPPRLPRPRPRPFAAPRP: 0.355.

Consider RRIRVRPPRLPRPRPRPMNHPRP, for which the “shrunken log2 fold change” value is -0.194.

Regarding RRIRGRPPRLPRPRPRPHKAPRP, the “shrunken log2 fold change” value was -0.0636. The same measure for RRIRLRPPRLPRPRPRPVIIPRP: -0.242; for RRIRGRPPRLPRPRPRPFQKPRP: -0.0668; for RRIRSRPPRLPRPRPRPKMRPRP: 0.269. For the sequence RRIRCRPPRLPRPRPRPGNMPRP, the “shrunken log2 fold change” value is -0.368. On to RRIRMRPPRLPRPRPRPAQTPRP, for which the “shrunken log2 fold change” value was determined as 0.00383. RRIRARPPRLPRPRPRPMLCPRP: the “shrunken log2 fold change” value turned out to be 0.637. Take RRIRHRPPRLPRPRPRPCVYPRP: the “shrunken log2 fold change” value is -0.62. Turning to RRIRTRPPRLPRPRPRPECSPRP, the “shrunken log2 fold change” value came out at 0.0479. With RRIRVRPPRLPRPRPRPAEWPRP, the “shrunken log2 fold change” value is 0.129.

On to RRIRQRPPRLPRPRPRPHVHPRP, for which the “shrunken log2 fold change” value was -0.124. For the sequence RRIRNRPPRLPRPRPRPISTPRP, the “shrunken log2 fold change” value is -0.507.

Turning to RRIRNRPPRLPRPRPRPKTAPRP, the “shrunken log2 fold change” value was -0.232. As for RRIRGRPPRLPRPRPRPRFVPRP, the “shrunken log2 fold change” value was 0.467.

The record behind these values is the supplement of paper PMC9112550, “Optimization of the antimicrobial peptide Bac7 by deep mutational scanning” (BMC Biology, 2022).
